Laboratory results taken from publication PMC4502523.

Tests used:
CC(N)Cc1ccc(Cl)cc1 = assay: cells, lysate or membranes
CSc1ccc(CC(C)N)cc1 = assay: cells, lysate or membranes

Substance: human SERT (hSERT) (Homo sapiens)
- Km (CC(N)Cc1ccc(Cl)cc1): 3.3 ± 0.9 µM
- Km (CSc1ccc(CC(C)N)cc1): 6.1 ± 2.3 µM
